Series [1] deals with Recombinant 6xHis-tagged KRas (rKRas; KRas4B NP_004976.2), P01116.
Series [2] has as its target GST-HRas (rGST-HRas), P01112.
The target in another series is T1, GST-Rit2, Q99578.
T1 chain: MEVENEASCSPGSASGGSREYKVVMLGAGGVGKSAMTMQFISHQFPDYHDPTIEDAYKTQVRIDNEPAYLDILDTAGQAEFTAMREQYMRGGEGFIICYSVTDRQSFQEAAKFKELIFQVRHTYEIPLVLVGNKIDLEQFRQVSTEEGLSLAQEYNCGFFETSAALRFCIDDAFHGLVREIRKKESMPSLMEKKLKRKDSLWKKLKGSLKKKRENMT

The target of series [3] is Recombinant 6xHis-tagged HRas (rHRas; NP_001123914.1), P01112.
Series [4] deals with Recombinant 6xHis-tagged NRas (rNRas; NP_002515.1), P01111.
Chain of Recombinant 6xHis-tagged NRas (rNRas; NP_002515.1), P01111 (P01111 whole entry): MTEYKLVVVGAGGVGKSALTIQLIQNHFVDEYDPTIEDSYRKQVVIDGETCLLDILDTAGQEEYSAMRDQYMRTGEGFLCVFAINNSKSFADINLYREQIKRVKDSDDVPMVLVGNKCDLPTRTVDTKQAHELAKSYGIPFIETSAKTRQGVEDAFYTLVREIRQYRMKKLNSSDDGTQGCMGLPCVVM

Chain of GST-HRas (rGST-HRas), P01112 (P01112 whole entry, looked up): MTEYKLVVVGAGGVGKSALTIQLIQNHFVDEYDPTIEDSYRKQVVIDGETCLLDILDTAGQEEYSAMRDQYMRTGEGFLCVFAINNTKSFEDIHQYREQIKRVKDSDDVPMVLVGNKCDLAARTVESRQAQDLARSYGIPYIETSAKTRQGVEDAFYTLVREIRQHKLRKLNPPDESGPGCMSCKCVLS
Chain of Recombinant 6xHis-tagged HRas (rHRas; NP_001123914.1), P01112 (P01112 whole entry, looked up): as above

B1: Recombinant 6xHis-tagged DUF5Ah (A. hydrophila ATCC7966 MARTXAh P3069-V3570) (protein)
chain: PGKTGVTERTARLFADVYSPDELKKAAQVFAKPIGESYQQILDQLATLHGASGQAKVEAALRLNNLIDDYLVKHEGSGRNPALSKLQSQLHGNLYRGELASLQAEVTALAKTRPDLAAIVIGKAAEEAQGQHPGLTQMVLRWAAQDPYLAAKAGYQGVVPADLPFDARFHIALGEQHDDLKKWLTEAQGKGLLNRAVLDDTRKVLHLGYSYQELQDMTGEQSAQMAVYFIKEAAKQAAPGSELSAELIMLDKFGDRRYLGELESRRIAQIENIYHSSKQTDVAAWDARYGGDALRTLNNQLDGESTLAGQLSRLLDNRNGLLIGETHGSDVNGLRFVNEQMDALKIQGVTVIALEHLRSELAQPLIDRYLAGGEMSPELTSMLKNKHLEPSLFERARERGMRIVALDDGSTARPAIAGTEHGLMYRAGAANNVAVEVLGKLPAGEKFVAIYGSAHLGSHKGIEGFVPGITHRLGLPALKVDADNRFHLQADDVSQRVEYADVGRKWTPVAAL
For the protein B1, the “in vitro cleavage, SDS-PAGE” value in series [1] is reported as “The recombinant protein rDUF5Ah was able to cleave rKRas in the in vitro reaction”.

B2: Recombinant 6xHis-tagged DUF5Vv (rDUF5Vv; V. vulnificus CMCP6 MARTXVv Q3596-L4089) (protein)
chain: QELKERAKVFAKPIGASYQGILDQLDLVHQAKGRDQIAASFELNKKINDYIAEHPTSGRNQALTQLKEQVTSALFIGKMQVAQAGIDAIAQTRPELAARIFMVAIEEANGKHVGLTDMMVRWANEDPYLAPKHGYKGETPSDLGFDAKYHVDLGEHYADFKQWLETSQSNGLLSKATLDESTKTVHLGYSYQELQDLTGAESVQMAFYFLKEAAKKADPISGDSAEMILLKKFADQSYLSQLDSDRMDQIEGIYRSSHETDIDAWDRRYSGTGYDELTNKLASATGVDEQLAVLLDDRKGLLIGEVHGSDVNGLRFVNEQMDALKKQGVTVIGLEHLRSDLAQPLIDRYLATGVMSSELSAMLKTKHLDVTLFENARANGMRIVALDANSSARPNVQGTEHGLMYRAGAANNIAVEVLQNLPDGEKFVAIYGKAHLQSHKGIEGFVPGITHRLDLPALKVSDSNQFTVEQDDVSLRVVYDDVANKPKITFKGSL
Turning to B2, the “in vitro cleavage of rGST-GTPase, SDS-PAGE” value in series [2] was “DUF5Vv could cleave only HRas”. Further, in the series with GST-Rit2, Q99578, the “in-vitro cleavage of GST-fusion GTPases” value is listed as “Rit2 was not cleaved at all”. The “in vitro endopeptidase assay, SDS-PAGE” value in series [3] is “showed the cleavage of rKRas, rHRas, and rNRas by rDUF5Vv”. In series [1], the “in vitro cleavage with varying concentrations of EDTA, equimolar 10 µM, 30 minutes at 37 C” value was “Cleavage was still observed”; the “in vitro cleavage with varying concentrations of phenanthroline, equimolar 10 µM, 30 minutes at 37 C” value was “Cleavage was still observed”; the “in vitro endopeptidase assay, SDS-PAGE” value was “showed the cleavage of rKRas, rHRas, and rNRas by rDUF5Vv”; the “in-vitro cleavage reaction of purified proteins” value was “rKRas was efficiently cleaved within 10 min in a concentration-dependent manner”. Besides, the “in vitro endopeptidase assay, SDS-PAGE” value in series [4] is “The cleavage of rNRas was less efficient compared to rKRas and rHRas”.

B3: Recombinant 6xHis-tagged DUF5Pa (P. asymbiotica ATCC43949 hypothetical protein, P41-V532) (protein)
chain: MVFEHDKTVERKRKPSIQLGNDKEKSSEQALELPQSKQNNPLLHDLITSNNLRKEAAVFAKQIGPSYQGILDGLEHLHNLSGNEQLTAGFELHRRITRYLEEHPDSKRNAALRRTQTQLGDLMFTGTLQEVRHPLLEMAETRPAMASQIYQIARDEAKGNTPGLTDLMVRWVKEDPYLAAKSGYQGKIPNDLPFEPKFHVELGDQFGEFKTWLDTAQNQGLLTHTRLDEQNKQVHLGYSYNELLDMTGGVESVKMAVYFLKEAAKQAEPGSAKSQEAILLNRFANPAYLTQLEQGRLAQMEAIYHSSHNTDVAAWDQQFSPDALTQFNHQLDNSVDLNSQLSFLLKDRQGLLIGESHGSDLNGLRFVEEQMDALKAHGVTVIGLEHLRSDLAQPLIDKFLTSENEPMPAELAAMLKTKHLSVNLFEQARSKQMKIIALDNNSTTRPAEGEHSLMYRAGAANNVAVERLQQLPAEEKFVAIYGNAHLQSHEGIDHFLPGITHRLGLPALKVDENNRFTAQADNINQRKCYDDVVEVSRIQLTS
Regarding B3, the “in vitro cleavage, SDS-PAGE” value in series [1] is given as “shown to also cleave rKRas”.
